The values that follow come from patent US20110300138A1 (published 2011).

Assay [1] addresses full length wild type human TSHR (human) (UniProt P16473). Kind of assay: TSHR260-AP bridge ELISA, wild type TSHR on wells; IgG at 10 µg/mL in HBD.
The target in assay [2] is full length human TSHR with mutation Arg255 Asp (human) (UniProt P16473). Kind of assay: TSHR260-AP bridge ELISA, Arg255 Asp TSHR on wells; IgG at 0.5 µg/mL in HBD. On the technique in general: In an ELISA, binding on a coated surface is turned into a signal by an enzyme label.
Assay [3] addresses human TSHR (thyroid stimulating hormone receptor) expressed in transfected CHO cells (human) (UniProt P16473). Kind of assay: cell-based or functional assay.
The target of assay [4] is full length human TSHR with mutation Arg255 Asp (human) (UniProt P16473). Kind of assay: TSHR260-AP bridge ELISA, Arg255 Asp TSHR on wells; IgG at 10 µg/mL in HBD.
The target is the same in assay [5]. Kind of assay: TSHR260-AP bridge ELISA, Arg255 Asp TSHR on wells; IgG at 0.005 µg/mL in HBD.
In assay [6] the target is human thyroid stimulating hormone receptor (TSHR), full length (human) (UniProt P16473). Kind of assay: 125I-K1-70 Fab (competitor) binding to TSHR coated tubes; test sample 1 µg/mL in assay buffer.
The target is the same in assay [7]. Kind of assay: 125I-K1-70 Fab (competitor) binding to TSHR coated tubes; test sample 0.1 µg/mL in HBD serum.
The next assay deals with wild type TSHR (human) (UniProt P16473). Kind of assay: cell-based or functional assay.
In assay [8] the target is TSHR with Tyr206 mutated to Ala (human) (UniProt P16473). Kind of assay: cell-based or functional assay.
Assay [9] deals with wild type human TSHR (full length) expressed in CHO cells (human) (UniProt P16473). Kind of assay: cell-based or functional assay.
The target of assay [10] is wild type TSHR (human TSH receptor) expressed in CHO cells (human) (UniProt P16473). Kind of assay: cell-based or functional assay.
Assay [11] concerns the target TSHR with Tyr185 mutated to Ala (human) (UniProt P16473). Kind of assay: cell-based or functional assay.
For assay [12], the target named is TSHR with Thr104 mutated to Ala (expressed in CHO cells) (human) (UniProt P16473). Kind of assay: cell-based or functional assay.
In assay [13] the target is TSHR with Lys58 mutated to Ala expressed in CHO cells (human) (UniProt P16473). Kind of assay: cell-based or functional assay.
For assay [14], the target named is TSHR with Lys183 mutated to Ala expressed in CHO cells (human) (UniProt P16473). Kind of assay: cell-based or functional assay.

In turn, 9D33 IgG (antibody) registered a Mean absorbance at 405 nm (absorbance at 405 nm) in assay [1] of 0.481. The Mean absorbance at 405 nm (absorbance at 405 nm) in [2] stood at 0.242. Also, in assay [3], the % Inhibition; 10 ng/mL K1-18 IgG + 0.001 µg/mL 9D33 IgG came out at 3%, the % Inhibition; 10 ng/mL K1-18 IgG + 0.01 µg/mL 9D33 IgG was determined as 15%, the % Inhibition; 10 ng/mL K1-18 IgG + 0.1 µg/mL 9D33 IgG was found to be 86% and the % Inhibition; 10 ng/mL K1-18 IgG + 1 µg/mL 9D33 IgG was 95%. Besides, in [3], the % Inhibition; 10 ng/mL K1-18 IgG + 10 µg/mL 9D33 IgG turned out to be 95%, the % Inhibition; 10 ng/mL K1-18 IgG + 100 µg/mL 9D33 IgG is 94%, the Cyclic AMP concentration; 10 ng/mL K1-18 IgG + 0.001 µg/mL 9D33 IgG turned out to be 35.8 pmol/mL and the Cyclic AMP concentration; 10 ng/mL K1-18 IgG + 0.01 µg/mL 9D33 IgG was determined as 31.3 pmol/mL. In addition, in [3], the Cyclic AMP concentration; 10 ng/mL K1-18 IgG + 0.1 µg/mL 9D33 IgG came out at 5.3 pmol/mL, the Cyclic AMP concentration; 10 ng/mL K1-18 IgG + 1 µg/mL 9D33 IgG came to 1.9 pmol/mL, the Cyclic AMP concentration; 10 ng/mL K1-18 IgG + 10 µg/mL 9D33 IgG came out at 1.9 pmol/mL and the Cyclic AMP concentration; 10 ng/mL K1-18 IgG + 100 µg/mL 9D33 IgG was 2.2 pmol/mL. In addition, the Cyclic AMP concentration; 100 µg/mL 9D33 IgG in assay [3] came out at 2 pmol/mL. In assay [4], the Mean absorbance at 405 nm (absorbance at 405 nm) came to 0.534. The Mean absorbance at 405 nm (absorbance at 405 nm) in assay [5] is 0.001. The same molecule had an Inhibition of binding (%) in [6] of 43.8%. In assay [7], this molecule returned an Inhibition of binding (%) of 12.7%.

Turning to M22 IgG (antibody), the Mean absorbance at 405 nm (absorbance at 405 nm) is 1.36 in [1], 0.262 in [2], 0.551 in assay [4] and -0.007 in [5].

With 5B3 IgG (antibody), in assay [3], the % Inhibition; 10 ng/mL K1-18 IgG + 10 µg/mL 5B3 IgG was determined as 4%, the % Inhibition; 10 ng/mL K1-18 IgG + 100 µg/mL 5B3 IgG was -13%, the Cyclic AMP concentration; 10 ng/mL K1-18 IgG + 10 µg/mL 5B3 IgG was 35.4 pmol/mL and the Cyclic AMP concentration; 10 ng/mL K1-18 IgG + 100 µg/mL 5B3 IgG amounted to 41.9 pmol/mL. This molecule also had a Cyclic AMP concentration; 100 µg/mL 5B3 IgG in assay [3] of 1.3 pmol/mL. For the same molecule, in the assay with wild type TSHR (human), the % inhibition of TSH stimulation, 5B3 100 µg/mL, wild type TSHR worked out at 0%; the Cyclic AMP produced (pmol/mL), 5B3 10 µg/mL + TSH 3 ng/mL, wild type TSHR was 94.5 pmol/mL; the Cyclic AMP produced (pmol/mL), 5B3 100 µg/mL + TSH 3 ng/mL, wild type TSHR was determined as 101 pmol/mL. In addition, in assay [8], the % inhibition of TSH stimulation, 5B3 10 µg/mL, mutated TSHR is 10%; the % inhibition of TSH stimulation, 5B3 100 µg/mL, mutated TSHR was found to be 9%; the Cyclic AMP produced (pmol/mL), 5B3 10 µg/mL + TSH 3 ng/mL, mutated TSHR turned out to be 74.6 pmol/mL; the Cyclic AMP produced (pmol/mL), 5B3 100 µg/mL + TSH 3 ng/mL, mutated TSHR came out at 75.2 pmol/mL. For the same molecule, in [8], the Mutated/wild type (%) of cyclic AMP produced; 5B3 10 µg/mL + TSH 3 ng/mL came to 79% and the Mutated/wild type (%) of cyclic AMP produced; 5B3 100 µg/mL + TSH 3 ng/mL was 74%. Besides, in [9], the % inhibition of TSH stimulation, 5B3 10 µg/mL, wild type TSHR worked out at 0%; the % inhibition of TSH stimulation, 5B3 100 µg/mL, wild type TSHR is 0%; the Cyclic AMP produced (pmol/mL), 5B3 10 µg/mL + TSH 3 ng/mL, wild type TSHR amounted to 106 pmol/mL; the Cyclic AMP produced (pmol/mL), 5B3 100 µg/mL + TSH 3 ng/mL, wild type TSHR amounted to 104 pmol/mL. In assay [10], the % inhibition of TSH stimulation, Exp 1: 5B3 10 µg/mL came to 0%; the % inhibition of TSH stimulation, Exp 1: 5B3 100 µg/mL came to 0%; the % inhibition of TSH stimulation, Exp 2: 5B3 10 µg/mL was 0%; the % inhibition of TSH stimulation, Exp 2: 5B3 100 µg/mL amounted to 0%. In addition, in assay [10], the % inhibition of TSH stimulation: 5B3 10 µg/mL amounted to 0%, the % inhibition of TSH stimulation: 5B3 100 µg/mL was 0%, the % inhibition of TSH stimulation; 5B3 10 µg/mL was found to be 0% and the % inhibition of TSH stimulation; 5B3 100 µg/mL turned out to be 0%. In addition, in assay [10], the Cyclic AMP produced; 5B3 10 µg/mL + TSH 3 ng/mL came to 75.6 pmol/mL and the Cyclic AMP produced; 5B3 100 µg/mL + TSH 3 ng/mL is 68.3 pmol/mL. Besides, in [11], the % inhibition of TSH stimulation, 5B3 10 µg/mL, mutated TSHR stood at 10%; the % inhibition of TSH stimulation, 5B3 100 µg/mL, mutated TSHR was found to be 0%; the Cyclic AMP produced (pmol/mL), 5B3 10 µg/mL + TSH 3 ng/mL, mutated TSHR worked out at 47 pmol/mL; the Cyclic AMP produced (pmol/mL), 5B3 100 µg/mL + TSH 3 ng/mL, mutated TSHR came to 56.1 pmol/mL. Also, in [11], the Mutated/wild type (%) of cyclic AMP produced; 5B3 10 µg/mL + TSH 3 ng/mL amounted to 37% and the Mutated/wild type (%) of cyclic AMP produced; 5B3 100 µg/mL + TSH 3 ng/mL came to 58%. Further, in [12], the % inhibition of TSH stimulation; 5B3 10 µg/mL was 7%, the % inhibition of TSH stimulation; 5B3 100 µg/mL was 6%, the Cyclic AMP produced; 5B3 10 µg/mL + TSH 3 ng/mL was determined as 59.1 pmol/mL and the Cyclic AMP produced; 5B3 100 µg/mL + TSH 3 ng/mL worked out at 60 pmol/mL. Besides, in assay [12], the Mutated/wild type (%) of cyclic AMP produced; 5B3 10 µg/mL + TSH 3 ng/mL is 71% and the Mutated/wild type (%) of cyclic AMP produced; 5B3 100 µg/mL + TSH 3 ng/mL was 68%. Also, in assay [13], the % inhibition of TSH stimulation; 5B3 10 µg/mL; Experiment 1 stood at 0%, the % inhibition of TSH stimulation; 5B3 10 µg/mL; Experiment 2 was determined as 4%, the % inhibition of TSH stimulation; 5B3 100 µg/mL; Experiment 1 came out at 0% and the % inhibition of TSH stimulation; 5B3 100 µg/mL; Experiment 2 came out at 1%. In assay [13], the Cyclic AMP produced; 5B3 10 µg/mL + TSH 3 ng/mL; Experiment 1 came to 81.6 pmol/mL, the Cyclic AMP produced; 5B3 10 µg/mL + TSH 3 ng/mL; Experiment 2 was 92.9 pmol/mL, the Cyclic AMP produced; 5B3 100 µg/mL + TSH 3 ng/mL; Experiment 1 amounted to 81.6 pmol/mL and the Cyclic AMP produced; 5B3 100 µg/mL + TSH 3 ng/mL; Experiment 2 is 95.8 pmol/mL. Also, in assay [13], the Mutated/wild type (%) of cyclic AMP produced; 5B3 10 µg/mL + TSH 3 ng/mL; Experiment 1 was 99%, the Mutated/wild type (%) of cyclic AMP produced; 5B3 10 µg/mL + TSH 3 ng/mL; Experiment 2 amounted to 88%, the Mutated/wild type (%) of cyclic AMP produced; 5B3 100 µg/mL + TSH 3 ng/mL; Experiment 1 came out at 101% and the Mutated/wild type (%) of cyclic AMP produced; 5B3 100 µg/mL + TSH 3 ng/mL; Experiment 2 stood at 106%. In [14], this molecule returned a % inhibition of TSH stimulation, Exp 1: 5B3 10 µg/mL of 24%; a % inhibition of TSH stimulation, Exp 1: 5B3 100 µg/mL of 17%; a % inhibition of TSH stimulation, Exp 2: 5B3 10 µg/mL of 9%; a % inhibition of TSH stimulation, Exp 2: 5B3 100 µg/mL of 9%. Moreover, in assay [14], the Cyclic AMP, Mutated/wild type (%), Exp 1: 5B3 10 µg/mL + TSH 3 ng/mL stood at 93%; the Cyclic AMP, Mutated/wild type (%), Exp 1: 5B3 100 µg/mL + TSH 3 ng/mL was 91%; the Cyclic AMP, Mutated/wild type (%), Exp 2: 5B3 10 µg/mL + TSH 3 ng/mL stood at 104%; the Cyclic AMP, Mutated/wild type (%), Exp 2: 5B3 100 µg/mL + TSH 3 ng/mL is 111%.

B1: 5C9 IgG (antibody, from another filing, V domains shown)
VH: EVQLVESGGGLIQPGGSLRLSCAASGFTVSSNYMSWVRQAPGKGLEWVSVTYSGGSTSYADSVKGRFTISRDNSKNTLYLQMNSLRAEDTAVYYCARGGRYCSSISCYARSGCDYWGQGTLVTVSS
VL: AIQMTQSPSSLSASVGDRVTITCRASQSISNYLNWYQQKPGKAPKLLIYAASSLQSGVPSRFSGSGSGTDFTLTISSLQPEDFATYYCQQSYSSPSTTFGQGTKLEIK
For the molecule B1, the Inhibition of binding (%) in assay [6] was determined as 41.5%; in assay [7], 6%.
